Reference: the supplement of paper PMC12764529
± gives the half width of the 95% confidence interval.

Columns and labels:
[1] = folding stability dG unfold (combined trypsin and chymotrypsin); higher = more stable
In short: (§1)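 Digests were run with trypsin and chymotrypsin at 11 concentrations in threefold dilutions, plus a no-protease condition, on designed mini-proteins in a PA-tagged cDNA display construct. The mini-proteins were under 80 residues, had no cysteine, and were kept only when AlphaFold2 dimer inter-PAE was above 15. After sequencing, Bayesian fitting of the counts gave K50, from which unfolding free energy was derived against a sequence-predicted unfolded-state K50 and a shared folded-state K50, per protease or combined.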

[2] = folding stability dG unfold from trypsin proteolysis; higher = more stable
In short: as §1

[3] = folding stability dG unfold from chymotrypsin proteolysis; higher = more stable
In short: as §1

| Sequence | folding stability dG unfold [1] [kcal/mol] | folding stability dG unfold [2] [kcal/mol] | folding stability dG unfold [3] [kcal/mol] |
| --- | --- | --- | --- |
| SAGGSAGGSAGFKLPPGQEVVFQVSIKLPDGPTQTLEDLENMPPENIDFLEIEISWVPVDSAGGSAGGSAGG [r11_899_TrROS] | 1.57 ± 0.2 | 1.09 ± 0.14 | 1.81 ± 0.12 |
| SAGGSAGGSAGFKVPPGWKIVNTYRSPESGYPTAILRDPGDNKPLIFDFDNGKIMPAKDISAGGSAGGSAGG [r11_268_TrROS] | -0.178 ± 0.55 | 0.291 ± 0.11 | -0.535 ± 0.69 |
| SAGGSAGGSAGFNIRIVNVEITGNKLTIYLPNGWVITIKFNKNGNINMKIEDIKPLPPGASAGGSAGGSAGG [r17_173_TrROS] | 3.61 ± 0.14 | 3.02 ± 0.16 | 3.98 ± 0.064 |
| SAGGSAGGSAGGAEEIARKLAEETGKKVTIRIRLPNGEVYEIELDEPLEEIEGAEIVEIESAGGSAGGSAGG [r7_998_TrROS_Hall] | 1.43 ± 0.061 | 0.639 ± 0.018 | 1.79 ± 0.036 |
| SAGGSAGGSAGGAEELAKELAEKLGLEKKKVLIKLPNGKVVEVTIEDLKKLNLKNAEIVPSAGGSAGGSAGG [r7_863_TrROS_Hall] | 0.786 ± 0.18 | 0.906 ± 0.052 | 0.492 ± 0.12 |
| SAGGSAGGSAGGAIVTTTTTKAPVFAPDGTVVAEITTTTVTVILPETPPSLLPEVLERLASAGGSAGGSAGG [r7_450_JUSTAS] | 0.681 ± 0.16 | 0.553 ± 0.06 | 0.801 ± 0.076 |
| SAGGSAGGSAGGALLVTPTPDGYIARVKDPNSDSWTVVPLSPEELEELAAAGVPTVEVLPSAGGSAGGSAGG [r7_266_JUSTAS] | 1.09 ± 0.16 | -0.336 ± 0.32 | 1.46 ± 0.064 |
| SAGGSAGGSAGGASLKVVEREVEYYDPETGETVRVKALVTVDPNSDKEILDPEEKEKLLSSAGGSAGGSAGG [r7_557_JUSTAS] | 0.907 ± 0.087 | 1.02 ± 0.034 | 0.795 ± 0.016 |
| SAGGSAGGSAGGAVTPETIELPDATITVYTYPEGVVVEVTDPETGQATVISPEEFERLLASAGGSAGGSAGG [r7_372_JUSTAS] | 1.5 ± 0.057 | 1.78 ± 0.044 | 1.21 ± 0.034 |
| SAGGSAGGSAGGDEEAIKEAAAAAPKDTTTVPVLLPDGKEVTLEVTWHPDGSRTITVRQSAGGSAGGSAGGS [r10_1017_JUSTAS] | 1.15 ± 0.072 | -0.0882 ± 0.15 | 1.6 ± 0.098 |
| SAGGSAGGSAGGDERVEVFEFDAPGGYRVRLVDFGDLALVAFISPDGRPAVIPVPRELLSAGGSAGGSAGGS [r10_1075_TrMRF] | 1.41 ± 0.044 | 0.529 ± 0.041 | 1.87 ± 0.035 |
| SAGGSAGGSAGGDESYRKLLEELPLPVTEIVVETVPLPETDEPITVVTPKNPDGKEVTLGSAGGSAGGSAGG [r7_337_JUSTAS] | -0.284 ± 0.14 | -0.0426 ± 0.037 | -0.557 ± 0.084 |
| SAGGSAGGSAGGDEVLVFETETVELEVEVRTLNEDGEETTEKEKVTLTVTRVVRLPPGLLSAGGSAGGSAGG [r7_926_TrROS_Hall] | 0.959 ± 0.44 | 0.827 ± 0.083 | 1.15 ± 0.24 |
| SAGGSAGGSAGGDKDDKPPVRTVTVMHMFFDENGWLVKFDITFTANGQIEIDWGPVPLPSAGGSAGGSAGGS [r10_682_TrROS] | 3.52 ± 0.5 | 2.96 ± 0.3 | 3.8 ± 0.42 |
| SAGGSAGGSAGGDKKDPGQPRQEVEIEIPVYDPNGKPKGPIEITMPAGQSLDEIADEIFNSAGGSAGGSAGG [r7_110_TrROS] | 0.937 ± 0.13 | 0.758 ± 0.068 | 1.05 ± 0.049 |
| SAGGSAGGSAGGDKNKPPKLKVKLKIEFPFTLPDGVKVRLEVEIDLDSDVIEPRAEVIDSSAGGSAGGSAGG [r7_213_TrMRF] | 2.64 ± 0.081 | 1.76 ± 0.035 | 2.98 ± 0.086 |
| SAGGSAGGSAGGDLVITEVRVEFDPKDGTLRVTARFELPNTGETVEVTLEFEIPYPDGASAGGSAGGSAGGS [r10_296_TrMRF] | 2.85 ± 0.32 | 2.99 ± 0.35 | 2.86 ± 0.15 |
| SAGGSAGGSAGGDNFEIEPDISWNPDYGYISIDWTVTIGGKEQPFTIMIPVRLPPPPEDDSAGGSAGGSAGG [r7_413_TrROS] | 1.14 ± 0.22 | 1.41 ± 0.099 | 0.712 ± 0.15 |
| SAGGSAGGSAGGDPKAKPKKYYLIDLNARLVGVEVDPETGELTVTYELEGATLTLRFEGSAGGSAGGSAGGS [r10_962_TrMRF] | 2.65 ± 0.14 | 2.24 ± 0.1 | 2.78 ± 0.045 |
| SAGGSAGGSAGGDPLPVTFTIPLEDDTTAKAVLSGDLVEVTIPNGKKYVLIPNPAVLGSSAGGSAGGSAGGS [r10_1176_TrMRF] | -0.216 ± 0.15 | -0.144 ± 0.11 | -0.232 ± 0.22 |
| SAGGSAGGSAGGDPNDKPKEERRIKIKVRPTNVQRDPDNGMLWYSWRLEGLSITIMIPASAGGSAGGSAGGS [r10_962_TrROS] | 2.85 ± 0.1 | 1.86 ± 0.08 | 3.43 ± 0.035 |

| Sequence | folding stability dG unfold [1] [kcal/mol] | folding stability dG unfold [2] [kcal/mol] | folding stability dG unfold [3] [kcal/mol] |
| --- | --- | --- | --- |
| SAGGSAGGSAGGEDLKINIKISEITFSPDGWITMSMRGGNGRWFQHTIKVKIKLPPGDPSAGGSAGGSAGGS [r10_281_TrROS] | 3 ± 0.12 | 2.77 ± 0.14 | 3.15 ± 0.038 |
| SAGGSAGGSAGGEEEYVTLTIKVYDPKTREPVKEITIVLPKKNMTPEQLRELLKELGIEVSAGGSAGGSAGG [r7_903_TrROS_Hall] | 2.98 ± 0.23 | 2.87 ± 0.12 | 3.01 ± 0.083 |
| SAGGSAGGSAGGEEKEVYLVRFRRPDGSEVTVVAPWEDLEEIVKSLPEAVEVEVEKAPLSAGGSAGGSAGGS [r10_437_TrMRF] | 1.98 ± 0.17 | 1.58 ± 0.042 | 2.22 ± 0.089 |
| SAGGSAGGSAGGEIKVEVVPVDGKLRVKVTLEDGEKIEIEVPENTTLDELKKLAEELAKKSAGGSAGGSAGG [r7_265_TrROS_Hall] | 1.94 ± 0.11 | 1.55 ± 0.083 | 2.12 ± 0.077 |
| SAGGSAGGSAGGEKIIKVHPDNIEAFLKEAKEKGYKVILFPNGEAIVNGKKVKIISDPKSAGGSAGGSAGGS [r10_930_TrMRF] | 1.74 ± 0.18 | 1.36 ± 0.12 | 1.73 ± 0.074 |
| SAGGSAGGSAGGEKKWIFMVSFRHPDGKERKFTFPWNDLEEIKENLPGIDDVEIEWMPMSAGGSAGGSAGGS [r10_437_TrROS] | 0.773 ± 0.19 | -0.025 ± 0.2 | 0.961 ± 0.28 |
| SAGGSAGGSAGGEKTIVISEEEAEKLAKELEKKGLTVERKPDGTLKVNGKEIRIIVVEPSAGGSAGGSAGGS [r10_930_TrROS_Hall] | 0.814 ± 0.17 | 0.758 ± 0.077 | 0.858 ± 0.07 |
| SAGGSAGGSAGGELKLLRIEVTGRAPYPTELLKTVEIVLPNEDVTEEQIRELLKELGIELSAGGSAGGSAGG [r7_903_TrMRF] | 0.0188 ± 0.19 | 0.226 ± 0.046 | -0.505 ± 0.26 |
| SAGGSAGGSAGGELKLLSVEEGPNETYTVSSSDGKLTVYTKPPDGSWKSTSLPLEPELLSAGGSAGGSAGGS [r10_99_JUSTAS] | 0.194 ± 0.1 | -0.277 ± 0.057 | 0.317 ± 0.14 |
| SAGGSAGGSAGGENNWMIFIEIKIEWEIKPTPDGKWKWEPEIEIKSIRIMPPNSPAAKDLSAGGSAGGSAGG [r7_889_TrROS] | 2.6 ± 0.24 | 2.95 ± 0.18 | 2.51 ± 0.1 |
| SAGGSAGGSAGGEPEVKVELRVELDEDGRLRVTLKVEFEDGTVERELELEAPVVFFPPEESAGGSAGGSAGG [r7_992_TrROS_Hall] | 2.49 ± 0.16 | 2.73 ± 0.18 | 2.07 ± 0.093 |
| SAGGSAGGSAGGEPIYIRINNYYIVINLDDGNIRVYPPMKGKKKKVPANDIKPIDPGDISAGGSAGGSAGGS [r10_709_TrROS] | 1.07 ± 0.076 | 1.18 ± 0.025 | 0.813 ± 0.071 |
| SAGGSAGGSAGGETIELKLPNGKVLRVEKDKEKGKTYKIYDTKTKKLVKTFKSKEALKKASAGGSAGGSAGG [r7_72_TrROS_Hall] | 1.02 ± 0.11 | 0.755 ± 0.07 | 1.19 ± 0.17 |
| SAGGSAGGSAGGETVVLVTYDKETKTLTVQTFELENGELKTTTKTVTLTDEQLESLPPASAGGSAGGSAGGS [r10_291_TrROS_Hall] | 1.87 ± 0.18 | 1.39 ± 0.07 | 1.99 ± 0.083 |
| SAGGSAGGSAGGEVIEIELPGKTKEEIEEAIKKLPENYKIEIKKDENGRIRVRIFRKEDLSAGGSAGGSAGG [r7_662_TrROS_Hall] | 1.44 ± 0.42 | 1.6 ± 0.15 | 1.5 ± 0.17 |
| SAGGSAGGSAGGFKLPPGKPIEFPIKHGGEPYPVEIWRDPNKLMIHFPGNNQWIPADDIKSAGGSAGGSAGG [r7_37_TrROS] | -0.931 ± 0.58 | -0.828 ± 0.45 | -0.589 ± 0.87 |
| SAGGSAGGSAGGFNIEVVPGEPGWVIKIEFPDHPITAFVDPEDGKLWIYNPDNGMIFPLSAGGSAGGSAGGS [r10_434_TrROS] | 2.03 ± 0.077 | 2.2 ± 0.042 | 1.78 ± 0.084 |
| SAGGSAGGSAGGFTIKIETRPMPMFSKDGKPLAEMNMYRIKIEVPDMPPGLADKLIDLIQSAGGSAGGSAGG [r7_450_TrROS] | 2.67 ± 0.22 | 1.66 ± 0.11 | 2.67 ± 0.097 |
| SAGGSAGGSAGGGIKIKIISVKPLPDGSVLVKAKIIFPDGKEKEILILFNKNGEIKIFEKSAGGSAGGSAGG [r7_860_TrMRF] | 3.71 ± 0.087 | 3.04 ± 0.11 | 4.03 ± 0.069 |
| SAGGSAGGSAGGGKKVKVIIAADKPEEAEKAIEKLEKETDLPLEDVIVIPREEAEKLGLASAGGSAGGSAGG [r7_84_TrMRF] | -0.553 ± 0.47 | -1.27 ± 0.82 | -0.574 ± 0.14 |
| SAGGSAGGSAGGGLRKITFETPLSDFEELVKALGLNVVSAEVEPGAGGLAKVTLLVEEGSAGGSAGGSAGGS [r10_999_TrMRF] | 1.55 ± 0.041 | 1.04 ± 0.013 | 1.843 ± 0.016 |
